Source: publication PMC6925194

B1: ASCT2 (Alanine, Serine, Cysteine Transporter 2; SLC1A5): N163H (protein)
parent chain: MVADPPRDSKGLAAAEPTANGGLALASIEDQGAAAGGYCGSRDQVRRCLRANLLVLLTVVAVVAGVALGLGVSGAGGALALGPERLSAFVFPGELLLRLLRMIILPLVVCSLIGGAASLDPGALGRLGAWALLFFLVTTLLASALGVGLALALQPGAASAAINASVGAAGSAENAPSKEVLDSFLDLARNIFPSNLVSAAFRSYSTTYEERNITGTRVKVPVGQEVEGMNILGLVVFAIVFGVALRKLGPEGELLIRFFNSFNEATMVLVSWIMWYAPVGIMFLVAGKIVEMEDVGLLFARLGKYILCCLLGHAIHGLLVLPLIYFLFTRKNPYRFLWGIVTPLATAFGTSSSSATLPLMMKCVEENNGVAKHISRFILPIGATVNMDGAALFQCVAAVFIAQLSQQSLDFVKIITILVTATASSVGAAGIPAGGVLTLAIILEAVNLPVDHISLILAVDWLVDRSCTVLNVEGDALGAGLLQNYVDRTESRSTEPELIQVKSELPLDPLPVPTEEGNPLLKHYRGPAGDATVASEKESVM
B2: ASCT2 (Alanine, Serine, Cysteine Transporter 2; SLC1A5): N212H (protein)
parent chain: B1 parent chain
B3: ASCT2 (Alanine, Serine, Cysteine Transporter 2; SLC1A5): N163H/N212H (protein)
parent chain: B1 parent chain

assay: CHO co-transfection, flow cytometry fusion index; settings: glycan lost; control: wild-type ASCT2

Question: With B1 as the protein, how does the “other: SYN1-induced cell-cell fusion” value read?
Answer: Its value is “no change”.

Question: For B2, which “other: SYN1-induced cell-cell fusion” value is on record?
Answer: Its value is “no change”.

Question: With B3 as the protein, how does the “other: SYN1-induced cell-cell fusion” value read?
Answer: The value was “no change”.
